Test system: OC[C@H]1O[C@@H](n2cnc3c(O)ncnc32)[C@H](O)[C@@H]1O
Experiment: Michaelis-Menten kinetics, xanthine oxidase-coupled assay (Km)
Format: biochemical, Plasmodium falciparum
Settings: phosphate catalytic site

Plasmodium falciparum purine nucleoside phosphorylase (PfPNP), native subunits (natPNPfus) (Plasmodium falciparum 3D7)
Km: 5.4 µM

Source: paper PMC7949152, “A resistant mutant of Plasmodium falciparum purine nucleoside phosphorylase uses wild-type neighbors to maintain parasite survival” (The Journal of Biological Chemistry, 2021)
